The values that follow come from US20110045008A1 (NEW YORK UNIVERSITY, published 2011).

B1: platelet GPIIIa (integrin beta3) on platelets (receptor, human, UniProt P05106 27-788, looked up)
chain: GPNICTTRGVSSCQQCLAVSPMCAWCSDEALPLGSPRCDLKENLLKDNCAPESIEFPVSEARVLEDRPLSDKGSGDSSQVTQVSPQRIALRLRPDDSKNFSIQVRQVEDYPVDIYYLMDLSYSMKDDLWSIQNLGTKLATQMRKLTSNLRIGFGAFVDKPVSPYMYISPPEALENPCYDMKTTCLPMFGYKHVLTLTDQVTRFNEEVKKQSVSRNRDAPEGGFDAIMQATVCDEKIGWRNDASHLLVFTTDAKTHIALDGRLAGIVQPNDGQCHVGSDNHYSASTTMDYPSLGLMTEKLSQKNINLIFAVTENVVNLYQNYSELIPGTTVGVLSMDSSNVLQLIVDAYGKIRSKVELEVRDLPEELSLSFNATCLNNEVIPGLKSCMGLKIGDTVSFSIEAKVRGCPQEKEKSFTIKPVGFKDSLIVQVTFDCDCACQAQAEPNSHRCNNGNGTFECGVCRCGPGWLGSQCECSEEDYRPSQQDECSPREGQPVCSQRGECLCGQCVCHSSDFGKITGKYCECDDFSCVRYKGEMCSGHGQCSCGDCLCDSDWTGYYCNCTTRTDTCMSSNGLLCSGRGKCECGSCVCIQPGSYGDTCEKCPTCPDACTFKKECVECKKFDRGALHDENTCNRYCRDEIESVKELKDTGKDAVNCTYKNEDDCVVRFQYYEDSSGKSILYVVEEPECPKGPDILVVLLSVMGAILLIGLAALLIWKLLITIHDRKEFAKFEEERARAKWDTANNPLYKEATSTFTNITYRGT
notes: whole, on cells; On platelets GPIIIa stands in the GPIIb-IIIa complex; also called platelet GPIIIa(49-66); platelet integrin GPIIIa

Test [1] has as its target T1, C-terminal truncated 35S-ADAMTS-18 (AD-CTD) (Homo sapiens (Human), UniProt Q8TE60 48-1064, 35S methionine).
T1 construct: also called C-terminal deficient ADAMTS-18
T1 sequence: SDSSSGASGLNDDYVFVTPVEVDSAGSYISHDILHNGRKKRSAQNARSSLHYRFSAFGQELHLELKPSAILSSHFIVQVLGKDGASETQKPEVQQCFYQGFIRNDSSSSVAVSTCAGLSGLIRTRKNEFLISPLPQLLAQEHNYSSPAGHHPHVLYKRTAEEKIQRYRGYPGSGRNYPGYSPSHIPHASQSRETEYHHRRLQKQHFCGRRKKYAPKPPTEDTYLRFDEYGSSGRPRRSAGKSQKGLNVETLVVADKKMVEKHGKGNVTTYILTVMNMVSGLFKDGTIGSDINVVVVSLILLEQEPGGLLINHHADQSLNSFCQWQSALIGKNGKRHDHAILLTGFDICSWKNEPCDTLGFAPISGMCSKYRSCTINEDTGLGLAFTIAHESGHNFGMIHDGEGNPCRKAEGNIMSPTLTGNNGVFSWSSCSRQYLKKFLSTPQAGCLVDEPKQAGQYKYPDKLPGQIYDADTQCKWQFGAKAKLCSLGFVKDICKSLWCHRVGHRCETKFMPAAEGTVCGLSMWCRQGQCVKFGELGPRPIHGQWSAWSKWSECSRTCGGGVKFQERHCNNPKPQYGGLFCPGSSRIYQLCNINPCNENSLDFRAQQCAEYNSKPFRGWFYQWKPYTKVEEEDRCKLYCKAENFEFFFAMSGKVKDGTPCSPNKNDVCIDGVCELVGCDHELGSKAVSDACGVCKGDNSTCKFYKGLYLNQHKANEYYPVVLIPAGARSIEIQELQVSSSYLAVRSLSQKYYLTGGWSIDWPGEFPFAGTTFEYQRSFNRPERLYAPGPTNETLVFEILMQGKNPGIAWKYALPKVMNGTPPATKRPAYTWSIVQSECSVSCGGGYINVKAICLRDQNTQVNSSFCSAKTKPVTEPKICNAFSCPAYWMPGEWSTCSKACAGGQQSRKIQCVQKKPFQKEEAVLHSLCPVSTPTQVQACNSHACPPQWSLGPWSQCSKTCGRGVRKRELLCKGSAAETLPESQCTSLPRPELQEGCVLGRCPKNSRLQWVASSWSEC
Description: 35S-labelled protein on gel filtered platelets, overnight at 4 C. The procedure:
FIGS. 14A-C show the effect of ADAMTS-18 on oxidative platelet fragmentation and binding to platelets. […] Gel-filtered platelets were treated with Biotin-peptide (bp) as well as bp+streptavidin (str) and scrambled Biotinylated ADAMTS-18 peptide (scp) to induce integrin clustering, n=6. Platelet fragmentation was assessed by FACS as described in the examples section. […] CT (control IgG), Ab (patient IgG). 18-mer biotin-peptide was incubated with an anti-Biotin Ab, 1:200 dilution (gray bars) or irrelevant IgG white bars, n=6. Oxidation was assessed. […] Ctl refers to ³⁵S ribosomal-translation of luciferase. AD-CTD refers to ³⁵S-ribosomal translation of ADAMTS-18 with absent C-terminal 157 amino acids (13% deleted). There is an absence of binding with C-terminal deficient ADAMTS-18. 18 mer refers to 10 μM non-radioactive 18 mer peptide added with the ³⁵S-ADAMTS-18 incubation. Binding with C-terminal 18 mer peptide is inhibited. The amino acid sequence for the 18-mer peptide is (SEQ ID NO: 8): […]

Test [2] concerns the target B1. Description: cell-based or functional assay.

For the molecule B1, the binding result in test [1] is “no binding”.

B2: ADAMTS-18 C-terminal 385 amino acid fragment (AD-18F) (ligand)
chain: NETLVFEILMQGKNPGIAWKYALPKVMNGTPPATKRPAYTWSIVQSECSVSCGGGYINVKAICLRDQNTQVNSSFCSAKTKPVTEPKICNAFSCPAYWMPGEWSTCSKACAGGQQSRKIQCVQKKPFQKEEAVLHSLCPVSTPTQVQACNSHACPPQWSLGPWSQCSKTCGRGVRKRELLCKGSAAETLPESQCTSLPRPELQEGCVLGRCPKNSRLQWVASSWSECSATCGLGVRKREMKCSEKGFQGKLITFPERRCRNIKKPNLDLEETCNRRACPAHPVYNMVAGWYSLPWQQCTVTCGGGVQTRSVHCVQQGRPSSSCLLHQKPPVLRACNTNFCPAPEKREDPSCVDFFNWCHLVPQHGVCNHKFYGKQCCKSCTRKI
As for B2, the “platelet fragmentation of TFLLRN-activated platelets against platelets without prestimulation” value in test [2] is approximately 22 fold.
